Data reported in FireProtDB.

Conditions: Escherichia coli (strain K12), Thermal, CD, whole UniProt chain shown; for unfolding free energy: reversible: yes
[1] = pH 0.53, glycine-HCl 10 mM, reversible: yes (95%)
[2] = pH 0.83, glycine-HCl 10 mM, reversible: yes (96%)
[3] = pH 1.02, glycine-HCl 10 mM, reversible: yes (98%)
[4] = pH 1.07, glycine-HCl 10 mM, reversible: yes (88%)
[5] = pH 1.08, glycine-HCl 10 mM, reversible: yes (102%)
[6] = pH 1.14, glycine-HCl 10 mM, reversible: yes (101%)
[7] = pH 1.24, glycine-HCl 10 mM, reversible: yes (103%)
[8] = pH 1.28, glycine-HCl 10 mM, reversible: yes (100%)
[9] = pH 1.3, glycine-HCl 10 mM, reversible: yes (101%)
[10] = pH 1.31, glycine-HCl 10 mM, reversible: yes (94%)
[11] = pH 1.4, glycine-HCl 10 mM, reversible: yes (91%)
[12] = pH 1.41, glycine-HCl 10 mM, reversible: yes (98%)
[13] = pH 1.45, glycine-HCl 10 mM, reversible: yes (101%)
[14] = pH 1.52, glycine-HCl 10 mM, reversible: yes (107%)
[15] = pH 1.55, glycine-HCl 10 mM, reversible: yes (93%)
[16] = pH 1.55, glycine-HCl 10 mM, reversible: yes (104%)
[17] = pH 1.62, glycine-HCl 10 mM, reversible: yes (100%)
[18] = pH 1.63, glycine-HCl 10 mM, reversible: yes (108%)
[19] = pH 1.67, glycine-HCl 10 mM, reversible: yes (108%)
[20] = pH 1.71, glycine-HCl 10 mM, reversible: yes (98%)
[21] = pH 1.75, glycine-HCl 10 mM, reversible: yes (90%)
[22] = pH 1.76, glycine-HCl 10 mM, reversible: yes (101%)
[23] = pH 1.79, glycine-HCl 10 mM, reversible: yes (104%)
[24] = pH 1.84, glycine-HCl 10 mM, reversible: yes (110%)
[25] = pH 1.94, glycine-HCl 10 mM, reversible: yes (88%)
[26] = pH 2, glycine-HCl 10 mM, reversible: yes (98%)
[27] = pH 2.03, glycine-HCl 10 mM, reversible: yes (109%)
[28] = pH 2.04, glycine-HCl 10 mM, reversible: yes (95%)
[29] = pH 2.15, glycine-HCl 10 mM, reversible: yes (92%)
[30] = pH 2.18, glycine-HCl 10 mM, reversible: yes (90%)
[31] = pH 2.22, glycine-HCl 10 mM, reversible: yes (95%)
[32] = pH 2.39, glycine-HCl 10 mM, reversible: yes (95%)
[33] = pH 2.45, glycine-HCl 10 mM, reversible: yes (96%)
[34] = pH 2.53, glycine-HCl 10 mM, reversible: yes (92%)
[35] = pH 2.65, glycine-HCl 10 mM, reversible: yes (91%)
[36] = pH 2.79, glycine-HCl 10 mM, reversible: yes (92%)
[37] = pH 2.86, glycine-HCl 10 mM, reversible: yes (97%)
[38] = pH 2.95, glycine-HCl 10 mM, reversible: yes (92%)
[39] = pH 3.06, glycine-HCl 10 mM, reversible: yes (90%)
[40] = pH 3.1, glycine-HCl 10 mM, reversible: yes (85%)
[41] = pH 3.11, glycine-HCl 10 mM, reversible: yes (91%)
[42] = pH 3.18, glycine-HCl 10 mM, reversible: yes (93%)
[43] = pH 3.25, glycine-HCl 10 mM, reversible: yes (94%)
[44] = pH 3.26, glycine-HCl 10 mM, reversible: yes (95%)
[45] = pH 3.34, glycine-HCl 10 mM, reversible: yes (94%)
[46] = pH 3.38, glycine-HCl 10 mM, reversible: yes (96%)
[47] = pH 3.64, glycine-HCl 10 mM, reversible: yes (93%)
[48] = pH 3.98, glycine-HCl 10 mM, reversible: yes (93%)
[49] = pH 4, glycine-HCl 10 mM, reversible: yes (94%)

B1: Ribonuclease HI wild type, P0A7Y4 (protein)
chain: MLKQVEIFTDGSCLGNPGPGGYGAILRYRGREKTFSAGYTRTTNNRMELMAAIVALEALKEHCEVILSTDSQYVRQGITQWIHNWKKRGWKTADKKPVKNVDLWQRLDAALGQHQIKWEWVKGHAGHPENERCDELARAAAMNPTLEDTGYQVEV
Tm [1]: 23.6 °C | unfolding enthalpy (van 't Hoff) [1]: 41.2 kcal/mol | Tm [2]: 23.9 °C | unfolding enthalpy (van 't Hoff) [2]: 37.3 kcal/mol | Tm [3]: 20.4 °C | unfolding enthalpy (van 't Hoff) [3]: 34.7 kcal/mol | Tm [4]: 24.9 °C | unfolding enthalpy (van 't Hoff) [4]: 35.3 kcal/mol | Tm [5]: 22.3 °C | unfolding enthalpy (van 't Hoff) [5]: 49.6 kcal/mol | Tm [6]: 21.5 °C | unfolding enthalpy (van 't Hoff) [6]: 51.5 kcal/mol | Tm [7]: 21.5 °C | unfolding enthalpy (van 't Hoff) [7]: 48.7 kcal/mol | Tm [8]: 23 °C | unfolding enthalpy (van 't Hoff) [8]: 52.7 kcal/mol | Tm [9]: 21.2 °C | unfolding enthalpy (van 't Hoff) [9]: 56.9 kcal/mol | Tm [10]: 20.9 °C | unfolding enthalpy (van 't Hoff) [10]: 45.5 kcal/mol | Tm [11]: 20.3 °C | unfolding enthalpy (van 't Hoff) [11]: 52.9 kcal/mol | Tm [12]: 21 °C | unfolding enthalpy (van 't Hoff) [12]: 46.1 kcal/mol | Tm [13]: 21.8 °C | unfolding enthalpy (van 't Hoff) [13]: 52 kcal/mol | Tm [14]: 21.5 °C | unfolding enthalpy (van 't Hoff) [14]: 55.3 kcal/mol | Tm [15]: 21.7 °C | unfolding enthalpy (van 't Hoff) [15]: 53.4 kcal/mol | Tm [16]: 20.8 °C | unfolding enthalpy (van 't Hoff) [16]: 54.4 kcal/mol | Tm [17]: 20.6 °C | unfolding enthalpy (van 't Hoff) [17]: 56.4 kcal/mol | Tm [18]: 21.9 °C | unfolding enthalpy (van 't Hoff) [18]: 55.7 kcal/mol | Tm [19]: 23.6 °C | unfolding enthalpy (van 't Hoff) [19]: 70.6 kcal/mol | Tm [20]: 21.1 °C | unfolding enthalpy (van 't Hoff) [20]: 58.3 kcal/mol | Tm [21]: 21.7 °C | unfolding enthalpy (van 't Hoff) [21]: 72.5 kcal/mol | Tm [22]: 25.2 °C | unfolding enthalpy (van 't Hoff) [22]: 78.5 kcal/mol | Tm [23]: 23.9 °C | unfolding enthalpy (van 't Hoff) [23]: 60.7 kcal/mol | Tm [24]: 23.9 °C | unfolding enthalpy (van 't Hoff) [24]: 64.8 kcal/mol | Tm [25]: 24.8 °C | unfolding enthalpy (van 't Hoff) [25]: 74.6 kcal/mol | unfolding free energy (pH 2, 10 °C, glycine-HCl 10 mM): 2 kcal/mol | Tm [26]: 26.5 °C | unfolding enthalpy (van 't Hoff) [26]: 61.3 kcal/mol | Tm [27]: 28.7 °C | unfolding enthalpy (van 't Hoff) [27]: 67.9 kcal/mol | Tm [28]: 28.5 °C | unfolding enthalpy (van 't Hoff) [28]: 70.6 kcal/mol | Tm [29]: 29.9 °C | unfolding enthalpy (van 't Hoff) [29]: 67.1 kcal/mol | Tm [30]: 32.5 °C | unfolding enthalpy (van 't Hoff) [30]: 63.5 kcal/mol | Tm [31]: 33 °C | unfolding enthalpy (van 't Hoff) [31]: 65.8 kcal/mol | Tm [32]: 35.5 °C | unfolding enthalpy (van 't Hoff) [32]: 66.7 kcal/mol | Tm [33]: 35.4 °C | unfolding enthalpy (van 't Hoff) [33]: 71.8 kcal/mol | Tm [34]: 39.8 °C | unfolding enthalpy (van 't Hoff) [34]: 76 kcal/mol | Tm [35]: 42.3 °C | unfolding enthalpy (van 't Hoff) [35]: 81.3 kcal/mol | Tm [36]: 46.1 °C | unfolding enthalpy (van 't Hoff) [36]: 89 kcal/mol | Tm [37]: 46.4 °C | unfolding enthalpy (van 't Hoff) [37]: 80.5 kcal/mol | Tm [38]: 50.1 °C | unfolding enthalpy (van 't Hoff) [38]: 91.6 kcal/mol | unfolding free energy (pH 3, 10 °C, glycine-HCl 10 mM): 8.14 kcal/mol | unfolding free energy (pH 3, 25 °C, glycine-HCl 10 mM): 6.08 kcal/mol | Tm [39]: 50.7 °C | unfolding enthalpy (van 't Hoff) [39]: 102 kcal/mol | Tm [40]: 53.9 °C | unfolding enthalpy (van 't Hoff) [40]: 106 kcal/mol | Tm [41]: 52.2 °C | unfolding enthalpy (van 't Hoff) [41]: 101 kcal/mol | Tm [42]: 54 °C | unfolding enthalpy (van 't Hoff) [42]: 102 kcal/mol | Tm [43]: 55.1 °C | unfolding enthalpy (van 't Hoff) [43]: 109 kcal/mol | Tm [44]: 58.9 °C | unfolding enthalpy (van 't Hoff) [44]: 96.6 kcal/mol | Tm [45]: 57.6 °C | unfolding enthalpy (van 't Hoff) [45]: 100 kcal/mol | Tm [46]: 57.4 °C | unfolding enthalpy (van 't Hoff) [46]: 101 kcal/mol | Tm [47]: 62.1 °C | unfolding enthalpy (van 't Hoff) [47]: 106 kcal/mol | Tm [48]: 66 °C | unfolding enthalpy (van 't Hoff) [48]: 125 kcal/mol | unfolding free energy (pH 4, 10 °C, glycine/HCl 10 mM): 12 kcal/mol | unfolding free energy (pH 4, 25 °C, glycine-HCl 10 mM): 10 kcal/mol | Tm [49]: 66.6 °C | unfolding enthalpy (van 't Hoff) [49]: 112 kcal/mol
